The target of one assay is His-HDAC2, recombinant (UniProt Q92769 1-488). Briefly: SPR.
In the next assay the target is His-HDAC1, recombinant (human, UniProt Q13547 1-482). In words: SPR.

As usually defined, the Kd is the free concentration of one partner at which half of the binding sites on the other are occupied at equilibrium, for simple one-to-one binding.

His-HDAC1, recombinant, sequence (Q13547 whole entry): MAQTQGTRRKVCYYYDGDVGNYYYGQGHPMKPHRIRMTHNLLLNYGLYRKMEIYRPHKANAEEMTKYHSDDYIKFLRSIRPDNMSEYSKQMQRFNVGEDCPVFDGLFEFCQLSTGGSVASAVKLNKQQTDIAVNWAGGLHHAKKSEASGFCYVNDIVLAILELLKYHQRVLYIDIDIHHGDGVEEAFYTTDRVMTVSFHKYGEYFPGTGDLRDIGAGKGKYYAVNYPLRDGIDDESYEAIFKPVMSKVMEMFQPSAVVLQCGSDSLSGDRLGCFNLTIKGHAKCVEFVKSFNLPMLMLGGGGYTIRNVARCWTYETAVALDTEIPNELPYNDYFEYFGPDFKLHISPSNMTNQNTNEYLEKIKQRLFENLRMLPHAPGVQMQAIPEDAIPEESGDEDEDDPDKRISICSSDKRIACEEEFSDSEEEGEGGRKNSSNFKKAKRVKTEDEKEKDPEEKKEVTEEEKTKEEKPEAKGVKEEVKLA
His-HDAC2, recombinant, sequence (Q92769 whole entry): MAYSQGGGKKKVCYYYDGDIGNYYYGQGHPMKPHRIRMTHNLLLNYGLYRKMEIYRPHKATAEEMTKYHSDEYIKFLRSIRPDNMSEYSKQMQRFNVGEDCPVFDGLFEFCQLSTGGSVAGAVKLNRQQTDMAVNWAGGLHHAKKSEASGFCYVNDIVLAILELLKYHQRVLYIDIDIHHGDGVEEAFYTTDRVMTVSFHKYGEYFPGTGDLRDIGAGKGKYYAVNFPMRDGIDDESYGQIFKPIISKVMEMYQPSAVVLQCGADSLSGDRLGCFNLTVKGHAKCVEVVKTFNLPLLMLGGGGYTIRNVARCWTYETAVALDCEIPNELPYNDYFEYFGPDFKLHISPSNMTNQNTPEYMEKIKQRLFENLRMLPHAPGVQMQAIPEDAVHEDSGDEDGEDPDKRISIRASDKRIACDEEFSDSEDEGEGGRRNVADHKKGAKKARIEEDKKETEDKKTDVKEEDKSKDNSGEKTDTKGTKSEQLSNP

B1: GST-PFKL, recombinant (enzyme)
chain: MAAVDLEKLRASGAGKAIGVLTSGGDAQGMNAAVRAVTRMGIYVGAKVFLIYEGYEGLVEGGENIKQANWLSVSNIIQLGGTIIGSARCKAFTTREGRRAAAYNLVQHGITNLCVIGGDGSLTGANIFRSEWGSLLEELVAEGKISETTARTYSHLNIAGLVGSIDNDFCGTDMTIGTDSALHRIMEVIDAITTTAQSHQRTFVLEVMGRHCGYLALVSALASGADWLFIPEAPPEDGWENFMCERLGETRSRGSRLNIIIIAEGAIDRNGKPISSSYVKDLVVQRLGFDTRVTVLGHVQRGGTPSAFDRILSSKMGMEAVMALLEATPDTPACVVTLSGNQSVRLPLMECVQMTKEVQKAMDDKRFDEATQLRGGSFENNWNIYKLLAHQKPPKEKSNFSLAILNVGAPAAGMNAAVRSAVRTGISHGHTVYVVHDGFEGLAKGQVQEVGWHDVAGWLGRGGSMLGTKRTLPKGQLESIVENIRIYGIHALLVVGGFEAYEGVLQLVEARGRYEELCIVMCVIPATISNNVPGTDFSLGSDTAVNAAMESCDRIKQSASGTKRRVFIVETMGGYCGYLATVTGIAVGADAAYVFEDPFNIHDLKVNVEHMTEKMKTDIQRGLVLRNEKCHDYYTTEFLYNLYSSEGKGVFDCRTNVLGHLQQGGAPTPFDRNYGTKLGVKAMLWLSEKLREVYRKGRVFANAPDSACVIGLKKKAVAFSPVTELKKDTDFEHRMPREQWWLSLRLMLKMLAQYRISMAAYVSGELEHVTRRTLSMDKGF
Take B1: the Kd in the assay with His-HDAC2, recombinant was found to be 9.5 nM; with His-HDAC1, recombinant, 2.18 nM.

Values taken from publication PMC12518634 (2025).
